The text below walks through data of patent publication US20260274896A1 (ICHIMARU PHARCOS, published 2026).

*1 amine or outer side, *2 acyl side, *3 side chain or, on linkers, in order; H or OH if unused. Bridges are numbered along the chain shown (N, C = ends). [ ]: non-standard residue; d: D form. TBMB = c1c(C[*:1])cc(C[*:3])cc1C[*:2]; NMeY = CN[C@@H](Cc1ccc(O)cc1)C(=O)O; pXylylene = c1cc(C[*:2])ccc1C[*:1]; Dap = NC[C@H](N)C(=O)O; Mpa = O=C(O)CCS; Sar = CNCC(=O)O

First the molecules themselves.
T1: Vasoactive intestinal peptide receptor 2 (VIPR2), human, on the human VIPR2-expressing cell line (Catalog No. … (human, UniProt P41587 24-438))
T1 construct: whole, on cells; also called VPAC2; VIPR2-expressing cells
T1 sequence (looked up): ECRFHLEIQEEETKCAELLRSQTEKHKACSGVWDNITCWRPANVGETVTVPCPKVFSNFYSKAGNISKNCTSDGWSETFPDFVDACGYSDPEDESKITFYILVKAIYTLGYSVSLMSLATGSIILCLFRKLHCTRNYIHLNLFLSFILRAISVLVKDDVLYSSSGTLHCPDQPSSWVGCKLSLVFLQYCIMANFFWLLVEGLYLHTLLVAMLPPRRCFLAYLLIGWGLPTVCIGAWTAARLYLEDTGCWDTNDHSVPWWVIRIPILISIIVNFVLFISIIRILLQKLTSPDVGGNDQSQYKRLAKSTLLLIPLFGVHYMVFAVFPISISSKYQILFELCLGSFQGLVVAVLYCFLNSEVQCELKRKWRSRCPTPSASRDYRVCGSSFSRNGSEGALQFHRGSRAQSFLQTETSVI

B1: Seq-5 (peptide)
peptide: XYLPKYLCDLI
modifications: Mpa at position 1; NmeTyr at position 2; thioether bridge via DBoXy (1,2-bis(bromomethyl)benzene) linker (1-8); side-chain amide(5-9) between Lys5 and Asp9; C-terminal amide (NH2)
notes: Synthetic bicyclic peptide
B2: Seq-10 (peptide)
peptide: Ac-CPPYLPKYLCDLI-NH2
modifications: disulfide 1-10; lactam 7-11
SMILES: CC[C@H](C)[C@H](NC(=O)[C@H](CC(C)C)NC(=O)[C@@H]1CC(=O)NCCCC[C@@H]2NC(=O)[C@@H]3CCCN3C(=O)[C@H](CC(C)C)NC(=O)[C@H](Cc3ccc(O)cc3)NC(=O)[C@@H]3CCCN3C(=O)[C@@H]3CCCN3C(=O)[C@@H](NC(C)=O)CSSC[C@H](NC(=O)[C@H](CC(C)C)NC(=O)[C@H](Cc3ccc(O)cc3)NC2=O)C(=O)N1)C(N)=O
notes: Synthetic bicyclic peptide
B3: Seq-6 (peptide)
peptide: XYLPKYLCDLI
modifications: Mpa at position 1; NmeTyr at position 2; thioether bridge via DBmXy (1,3-bis(bromomethyl)benzene) linker (1-8); side-chain amide(5-9) between Lys5 and Asp9; C-terminal amide (NH2)
notes: Synthetic bicyclic peptide
B4: Seq-7 (peptide)
peptide: [Mpa][NMeY]LPKYLCDLI-NH2
modifications: linker 1-8 via pXylylene; lactam 5-9
SMILES: CC[C@H](C)[C@H](NC(=O)[C@H](CC(C)C)NC(=O)[C@@H]1CC(=O)NCCCC[C@@H]2NC(=O)[C@@H]3CCCN3C(=O)[C@H](CC(C)C)NC(=O)[C@H](Cc3ccc(O)cc3)N(C)C(=O)CCSCc3ccc(cc3)CSC[C@H](NC(=O)[C@H](CC(C)C)NC(=O)[C@H](Cc3ccc(O)cc3)NC2=O)C(=O)N1)C(N)=O
notes: Synthetic bicyclic peptide
B5: Seq-2 (peptide)
peptide: XYLPKYLCDLI
modifications: Mpa at position 1; NmeTyr (N-methyl-Tyr) at position 2; thioether bridge via DIBut (1,4-diiodobutane) linker (1-8); side-chain amide(5-9) between Lys5 and Asp9; C-terminal amide (NH2)
notes: Synthetic bicyclic peptide
B6: Seq-4 (peptide)
peptide: XYLPKYLCDLI
modifications: Mpa at position 1; NmeTyr at position 2; thioether bridge via DIHex (1,6-diiodohexane) linker (1-8); side-chain amide(5-9) between Lys5 and Asp9; C-terminal amide (NH2)
notes: Synthetic bicyclic peptide
B7: Seq-1 (peptide)
peptide: [Mpa]PPYLPKYLCDLI-NH2
modifications: disulfide 1-10; lactam 7-11
SMILES: CC[C@H](C)[C@H](NC(=O)[C@H](CC(C)C)NC(=O)[C@@H]1CC(=O)NCCCC[C@@H]2NC(=O)[C@@H]3CCCN3C(=O)[C@H](CC(C)C)NC(=O)[C@H](Cc3ccc(O)cc3)NC(=O)[C@@H]3CCCN3C(=O)[C@@H]3CCCN3C(=O)CCSSC[C@H](NC(=O)[C@H](CC(C)C)NC(=O)[C@H](Cc3ccc(O)cc3)NC2=O)C(=O)N1)C(N)=O
notes: Synthetic bicyclic peptide derived from VIpep-3
B8: Seq-3 (peptide)
peptide: XYLPKYLCDLI
modifications: Mpa at position 1; NmeTyr at position 2; thioether bridge via DIPen (1,5-diiodopentane) linker (1-8); side-chain amide(5-9) between Lys5 and Asp9; C-terminal amide (NH2)
notes: Synthetic bicyclic peptide
B9: VIpep-3 (peptide)
peptide: Ac-CPPYLPRRLCTLLLRS-OH
modifications: disulfide 1-10
SMILES: CC(=O)N[C@H]1CSSC[C@@H](C(=O)N[C@H](C(=O)N[C@@H](CC(C)C)C(=O)N[C@@H](CC(C)C)C(=O)N[C@@H](CC(C)C)C(=O)N[C@@H](CCCNC(=N)N)C(=O)N[C@@H](CO)C(=O)O)[C@@H](C)O)NC(=O)[C@H](CC(C)C)NC(=O)[C@H](CCCNC(=N)N)NC(=O)[C@H](CCCNC(=N)N)NC(=O)[C@@H]2CCCN2C(=O)[C@H](CC(C)C)NC(=O)[C@H](Cc2ccc(O)cc2)NC(=O)[C@@H]2CCCN2C(=O)[C@@H]2CCCN2C1=O
notes: also called Vlpep-3
B10: Seq-8 (peptide)
peptide: [Mpa][NMeY]L[Sar]CYLCSLI-NH2
modifications: linker 1-5-8 via TBMB
SMILES: CC[C@H](C)[C@H](NC(=O)[C@H](CC(C)C)NC(=O)[C@H](CO)NC(=O)[C@@H]1CSCc2cc3cc(c2)CSC[C@H](NC(=O)CN(C)C(=O)[C@H](CC(C)C)NC(=O)[C@H](Cc2ccc(O)cc2)N(C)C(=O)CCSC3)C(=O)N[C@@H](Cc2ccc(O)cc2)C(=O)N[C@@H](CC(C)C)C(=O)N1)C(N)=O
notes: Synthetic bicyclic peptide
B11: Seq-9 (peptide)
peptide: [Mpa][NMeY]L[Sar]CYLC[Dap]LI-NH2
modifications: linker 1-5-8 via TBMB
SMILES: CC[C@H](C)[C@H](NC(=O)[C@H](CC(C)C)NC(=O)[C@H](CN)NC(=O)[C@@H]1CSCc2cc3cc(c2)CSC[C@H](NC(=O)CN(C)C(=O)[C@H](CC(C)C)NC(=O)[C@H](Cc2ccc(O)cc2)N(C)C(=O)CCSC3)C(=O)N[C@@H](Cc2ccc(O)cc2)C(=O)N[C@@H](CC(C)C)C(=O)N1)C(N)=O
notes: Synthetic bicyclic peptide

For one test, the target named is T1, Vasoactive intestinal peptide receptor …. Put plainly: summary of the Examples (binding to VIPR2-expressing cells).
For B1, the binding result was “binds”.
For B2, the binding result was “binds”.
Regarding B3, the binding result is “binds”.
As to B4, the binding result is reported as “binds”.
On the same count and under the same terms, as for B5, the entry is “binds”; as for B6, “binds”; as for B7, “binds”.
For B8, the binding result is on record as “binds”.

A further test shares this target. Put plainly: competitive cell-based ELISA on human VIPR2-expressing cells; competitor Biotin-VIpep-3 (1000 nM). Here is the method: (§1) To confirm the binding activity of the amino acid substituted peptides to VIPR2, a competitive binding assay was constructed using the cell-based ELISA method shown in FIG. 3. The following is a brief description of this cell-based ELISA method. Human VIPR2-expressing cell line (Catalog No. HTS079RTA, manufactured by EUROFINS) was spread in a 96-well plate using the culture medium provided by the manufacturer, and cultured overnight at 37° C. in a CO₂ incubator. After washing the plates with HBSS containing 0.1% BSA, the mixtures containing Biotin-VIpep-3 (1000 nM) and any concentration of amino acid substituted peptide or VIpep-3 were prepared and added at 50 μL/well. After reaction on ice for 60 minutes, the plate was washed with 0.1% BSA containing HBSS. Biotin-VIpep-3 bound to VIPR2-expressing cells adhering to the plate was detected with SA-HRP (catalog no. ab7403, Abcam). For HRP quantification, SuperSignal ELISA Pico Chemiluminescent Substrate (Catalog No. 37070, ThermoFisher) was used to measure chemiluminescence values. […] In other words, the binding activity of amino acid substituted peptides and VIpep-3 to VIPR2 is detected as a competitive inhibitory activity against Biotin-VIpep-3 binding. […] Then, using the 50% inhibitory activity value of VIpep-3 as 1, the relative inhibitory activity values of the amino acid-substituted peptides were calculated.
A general note: An ELISA detects its analyte on a solid surface through an enzyme-linked reagent.
For B9, the binding result is “binds”.

Another test has the same target. The test can be described thus: competitive cell-based ELISA on human VIPR2-expressing cells; competitor Biotin-VIpep-3 (1000 nM), N=4. Here is the method:
as §1
Consider B10, for which the binding result is recorded as “binds”.
With B11, the binding result was “binds”.
